Assay results from publication PMC5983706, “A Rationally Designed Hsp70 Variant Rescues the Aggregation-Associated Toxicity of Human IAPP in Cultured Pancreatic Islet β-Cells” (International Journal of Molecular Sciences, 2018).
Ends that are not written are not given here. FAM = carboxyfluorescein

Molecular target: T1, Hsp70 wild type (human Hsp70 1A) (human, UniProt P0DMV8 1-641)
T1 construct: human Hsp70 1A, GenBank entry NP005336; also called Hsp70 WT; heat shock protein 70 kDa
Assay: other fluorescence titration; 0.15 µM FAM-hIAPP with 0 to 36 µM chaperone in 50 mM Tris pH 7.4, 150 mM KCl, 5 mM MgCl2, 1 h at room temperature; FAM fluorescence at 520 nm; one-site binding model
Details: both partners purified

T1 sequence (P0DMV8 whole entry): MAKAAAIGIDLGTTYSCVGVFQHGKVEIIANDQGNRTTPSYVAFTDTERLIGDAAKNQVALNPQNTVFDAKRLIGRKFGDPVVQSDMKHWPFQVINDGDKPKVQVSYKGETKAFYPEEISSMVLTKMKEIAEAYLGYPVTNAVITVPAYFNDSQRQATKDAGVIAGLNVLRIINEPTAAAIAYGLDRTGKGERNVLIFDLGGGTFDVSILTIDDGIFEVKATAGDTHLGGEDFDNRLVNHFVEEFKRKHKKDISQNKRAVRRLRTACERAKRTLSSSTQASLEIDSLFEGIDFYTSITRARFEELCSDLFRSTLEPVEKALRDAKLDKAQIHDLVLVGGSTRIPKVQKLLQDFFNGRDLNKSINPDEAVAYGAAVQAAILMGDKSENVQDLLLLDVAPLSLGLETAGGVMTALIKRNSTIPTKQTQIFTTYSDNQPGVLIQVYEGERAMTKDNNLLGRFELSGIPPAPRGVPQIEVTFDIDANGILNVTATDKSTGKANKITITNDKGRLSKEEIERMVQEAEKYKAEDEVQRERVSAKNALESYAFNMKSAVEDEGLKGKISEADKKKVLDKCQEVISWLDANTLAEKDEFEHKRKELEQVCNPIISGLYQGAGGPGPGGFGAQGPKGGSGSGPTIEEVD

Kd: 2200 ± 300 nM
B1: FAM-hIAPP (human islet amyloid polypeptide N-terminally labelled with carboxyfluorescein) (peptide, UniProt P10997 34-70, looked up)
peptide: {FAM}-KCNTATCATQRLANFLVHSSNNFGAILSSTNVGSNTY
modifications: ends and bridges not checked
notes: human islet amyloid polypeptide (hIAPP, amylin), the mature hormone cut from its precursor; also called amylin; source: bought: Phoenix Pharmaceuticals
